Tests used:
human CD33 [1] = molecular target: T1, human CD33 (human, UniProt P20138 18-364); assay: cell-based or functional assay
human CD33 [2] = molecular target: T1, human CD33; assay: cell-based or functional assay; remark: listed apart in the source
human CD33 [3] = molecular target: T1, human CD33; assay: flow cytometry on HEL 92.1.7 AML cells

T1 sequence (P20138 18-364): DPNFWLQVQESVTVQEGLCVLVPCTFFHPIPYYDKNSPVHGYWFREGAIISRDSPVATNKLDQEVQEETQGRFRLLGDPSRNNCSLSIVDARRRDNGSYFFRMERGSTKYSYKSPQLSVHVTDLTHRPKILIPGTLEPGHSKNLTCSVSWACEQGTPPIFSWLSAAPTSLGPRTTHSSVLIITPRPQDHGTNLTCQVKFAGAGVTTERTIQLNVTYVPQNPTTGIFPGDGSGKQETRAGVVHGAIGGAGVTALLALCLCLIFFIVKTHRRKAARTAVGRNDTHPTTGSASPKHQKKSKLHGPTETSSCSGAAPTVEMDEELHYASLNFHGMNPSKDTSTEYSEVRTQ

B1: m2H12-SGD-1269 (other)
VH: QVQLQQSGPELVRPGTFVKISCKASGYTFTNYDINWVNQRPGQGLEWIGWIYPGDGSTKYNEKFKAKATLTADKSSSTAYLQLNNLTSENSAVYFCASGYEDAMDYWGQGTSVTVSS
VL: DIKMTQSPSSMYASLGERVIINCKASQDINSYLSWFQQKPGKSPKTLIYRANRLVDGVPSRFSGSGSGQDYSLTISSLEYEDMGIYYCLQYDEFPLTFGAGTKLELK
modifications: conjugated to drug-linker SGD-1269 (mcMMAF); sites and load not stated for the murine antibody
- IC50, cytotoxicity on HL-60 cells (96 h, CelltiterGlo) (human CD33 [1]): 1.3 ng/mL

B2: h2H12EC-SGD-1910 (other)
VH: QVQLVQSGAEVKKPGASVKVSCKASGYTFTNYDINWVRQAPGQGLEWIGWIYPGDGSTKYNEKFKAKATLTADTSTSTAYMELRSLRSDDTAVYYCASGYEDAMDYWGQGTTVTVSS
VL: DIQMTQSPSSLSASVGDRVTINCKASQDINSYLSWFQQKPGKAPKTLIYRANRLVDGVPSRFSGSGSGQDYTLTISSLQPEDFATYYCLQYDEFPLTFGGGTKVEIK
modifications: drug-linker SGD-1910 (pyrrolobenzodiazepine dimer) on the cysteine introduced at position 239 of the IgG1 chain, average about 2 drugs per antibody
- IC50 (ng/mL), cytotoxicity on HEL 92.1.7 cells (human CD33 [2]): 7 ng/mL
- IC50 (ng/mL), cytotoxicity on HL-60 cells (human CD33 [2]): 1 ng/mL
- IC50 (ng/mL), cytotoxicity on KG-1 cells (human CD33 [2]): 3 ng/mL
- IC50 (ng/mL), cytotoxicity on MV4-11 cells (human CD33 [2]): 0.1 ng/mL
- IC50 (ng/mL), cytotoxicity on TF1-α cells (human CD33 [2]): 49 ng/mL
- IC50 (ng/mL), cytotoxicity on TF-1 cells (human CD33 [2]): 61 ng/mL
- IC50 (ng/mL), cytotoxicity on U937 cells (human CD33 [2]): 22 ng/mL
- IC50, cytotoxicity on HEL 92.1.7 cells (96 h, CelltiterGlo) (human CD33 [1]): ~12.9 ng/mL
- IC50, cytotoxicity on HL-60 cells (96 h, CelltiterGlo) (human CD33 [1]): ~1.6 ng/mL
- mean IC50 over 7 of 7 AML cell lines, cytotoxicity (human CD33 [1]): 20.4 ng/mL

B3: HAcL (antibody, V domains shown)
VH: QVQLVQSGAEVKKPGASVKVSCKASGYTFTNYDINWVRQAPGQGLEWMGWIYPGDGSTKYNEKFKARVTMTTDTSTSTAYMELRSLRSDDTAVYYCARGYEDAMDYWGQGTTVTVSS
VL: DIKMTQSPSSMYASLGERVIINCKASQDINSYLSWFQQKPGKSPKTLIYRANRLVDGVPSRFSGSGSGQDYSLTISSLEYEDMGIYYCLQYDEFPLTFGAGTKLELK
notes: Hybrid of humanized heavy chain HA and the chimeric light chain (murine VL, human constant region)
- binding result (human CD33 [3]): no binding (tested: 0.03 nM to 600 nM (methods))

B4: h2H12-SGD-1269 (other)
VH: QVQLVQSGAEVKKPGASVKVSCKASGYTFTNYDINWVRQAPGQGLEWIGWIYPGDGSTKYNEKFKAKATLTADTSTSTAYMELRSLRSDDTAVYYCASGYEDAMDYWGQGTTVTVSS
VL: DIQMTQSPSSLSASVGDRVTINCKASQDINSYLSWFQQKPGKAPKTLIYRANRLVDGVPSRFSGSGSGQDYTLTISSLQPEDFATYYCLQYDEFPLTFGGGTKVEIK
modifications: drug-linker SGD-1269 (mcMMAF) on thiol groups of interchain disulfide cysteines, average about 4 drugs per antibody
- IC50 (ng/mL), cytotoxicity on HEL 92.1.7 cells (human CD33 [2]): > 1000 ng/mL
- IC50 (ng/mL), cytotoxicity on HL-60 cells (human CD33 [2]): 2 ng/mL
- IC50 (ng/mL), cytotoxicity on KG-1 cells (human CD33 [2]): 270 ng/mL
- IC50 (ng/mL), cytotoxicity on MV4-11 cells (human CD33 [2]): 0.1 ng/mL
- IC50 (ng/mL), cytotoxicity on TF1-α cells (human CD33 [2]): > 1000 ng/mL
- IC50 (ng/mL), cytotoxicity on TF-1 cells (human CD33 [2]): > 1000 ng/mL
- IC50 (ng/mL), cytotoxicity on U937 cells (human CD33 [2]): 19 ng/mL
- IC50, cytotoxicity on HL-60 cells (96 h, CelltiterGlo) (human CD33 [1]): 5.3 ng/mL
- mean IC50 for responsive AML cell lines (4 of 7), cytotoxicity (human CD33 [1]): 72.8 ng/mL

B5: HEcL (antibody, V domains shown)
VH: QVQLVQSGAEVKKPGASVKVSCKASGYTFTNYDINWVRQAPGQGLEWIGWIYPGDGSTKYNEKFKARVTMTTDTSTSTAYMELRSLRSDDTAVYYCARGYEDAMDYWGQGTTVTVSS
VL: DIKMTQSPSSMYASLGERVIINCKASQDINSYLSWFQQKPGKSPKTLIYRANRLVDGVPSRFSGSGSGQDYSLTISSLEYEDMGIYYCLQYDEFPLTFGAGTKLELK
notes: Hybrid of humanized heavy chain HE and the chimeric light chain (murine VL, human constant region)
- binding result (human CD33 [3]): no binding (tested: 0.03 nM to 600 nM (methods))

B6: HGcL (antibody, V domains shown)
VH: QVQLVQSGAEVKKPGASVKVSCKASGYTFTNYDINWVRQAPGQGLEWMGWIYPGDGSTKYNEKFKAKATLTTDTSTSTAYMELRSLRSDDTAVYYCARGYEDAMDYWGQGTTVTVSS
VL: DIKMTQSPSSMYASLGERVIINCKASQDINSYLSWFQQKPGKSPKTLIYRANRLVDGVPSRFSGSGSGQDYSLTISSLEYEDMGIYYCLQYDEFPLTFGAGTKLELK
notes: Hybrid of humanized heavy chain HG and the chimeric light chain (murine VL, human constant region)
- binding result (human CD33 [3]): no binding (tested: 0.03 nM to 600 nM (methods))

B7: HHcL (antibody, V domains shown)
VH: QVQLVQSGAEVKKPGASVKVSCKASGYTFTNYDINWVRQAPGQGLEWMGWIYPGDGSTKYNEKFKARVTMTTDTSTSTAYMELSSLTSDDTAVYYCARGYEDAMDYWGQGTTVTVSS
VL: DIKMTQSPSSMYASLGERVIINCKASQDINSYLSWFQQKPGKSPKTLIYRANRLVDGVPSRFSGSGSGQDYSLTISSLEYEDMGIYYCLQYDEFPLTFGAGTKLELK
notes: Hybrid of humanized heavy chain HH and the chimeric light chain (murine VL, human constant region)
- binding result (human CD33 [3]): no binding (tested: 0.03 nM to 600 nM (methods))

B8: HFcL (antibody, V domains shown)
VH: QVQLVQSGAEVKKPGASVKVSCKASGYTFTNYDINWVNQRPGQGLEWMGWIYPGDGSTKYNEKFKARVTMTTDTSTSTAYMELRSLRSDDTAVYYCARGYEDAMDYWGQGTTVTVSS
VL: DIKMTQSPSSMYASLGERVIINCKASQDINSYLSWFQQKPGKSPKTLIYRANRLVDGVPSRFSGSGSGQDYSLTISSLEYEDMGIYYCLQYDEFPLTFGAGTKLELK
notes: Hybrid of humanized heavy chain HF and the chimeric light chain (murine VL, human constant region)
- binding result (human CD33 [3]): no binding (tested: 0.03 nM to 600 nM (methods))

B9: HBcL (antibody, V domains shown)
VH: QVQLVQSGAEVKKPGASVKVSCKASGYTFTNYDINWVRQAPGQGLEWMGWIYPGDGSTKYNEKFKARVTMTADTSTSTAYMELRSLRSDDTAVYYCARGYEDAMDYWGQGTTVTVSS
VL: DIKMTQSPSSMYASLGERVIINCKASQDINSYLSWFQQKPGKSPKTLIYRANRLVDGVPSRFSGSGSGQDYSLTISSLEYEDMGIYYCLQYDEFPLTFGAGTKLELK
notes: Hybrid of humanized heavy chain HB and the chimeric light chain (murine VL, human constant region)
- binding result (human CD33 [3]): no binding (tested: 0.03 nM to 600 nM (methods))

B10: HDcL (antibody, V domains shown)
VH: QVQLVQSGAEVKKPGASVKVSCKASGYTFTNYDINWVRQAPGQGLEWMGWIYPGDGSTKYNEKFKARVTMTTDKSTSTAYMELRSLRSDDTAVYYCARGYEDAMDYWGQGTTVTVSS
VL: DIKMTQSPSSMYASLGERVIINCKASQDINSYLSWFQQKPGKSPKTLIYRANRLVDGVPSRFSGSGSGQDYSLTISSLEYEDMGIYYCLQYDEFPLTFGAGTKLELK
notes: Hybrid of humanized heavy chain HD and the chimeric light chain (murine VL, human constant region)
- binding result (human CD33 [3]): no binding (tested: 0.03 nM to 600 nM (methods))

From patent publication US20150147316A1 (Seagen, published 2015)
